Results reported in article PMC9482650, “Quantitative fragmentomics allow affinity mapping of interactomes” (Nature Communications, 2022).

Each binder was assayed against T1, DFNB31_1, Q9P202 (assay: holdup assay). Settings: plain residues with an end cap or a label only (N-terminal biotin on a linker: ado-ado).
T1 sequence (Q9P202 135-233, limits assumed, looked up): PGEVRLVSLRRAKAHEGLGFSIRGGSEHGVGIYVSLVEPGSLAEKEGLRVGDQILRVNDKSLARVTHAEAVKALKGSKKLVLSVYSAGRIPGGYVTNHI
Set-up: key: below the threshold = too weak to quantify, mostly under pKd 3.1 to 4
Binder RHGSCVETSL [TMEM151B, Q8IW70] has a pKd of 4.61.
With DDEDRLVIEI [ZNF831, Q5JPB2] the pKd was “below the threshold”.

The binders below were run against DLG1_3, Q12959 (assay: holdup assay). Settings: plain residues with an end cap or a label only (N-terminal biotin on a linker: ado-ado).
DLG1_3, Q12959, sequence (Q12959 457-571): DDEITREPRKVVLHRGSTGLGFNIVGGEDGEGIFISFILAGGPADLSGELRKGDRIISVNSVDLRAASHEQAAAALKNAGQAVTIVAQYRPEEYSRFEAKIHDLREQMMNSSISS
Set-up: key: below the threshold = too weak to quantify, mostly under pKd 3.1 to 4
With RHGSCVETSL [TMEM151B, Q8IW70] the pKd was 4.1.
With DDEDRLVIEI [ZNF831, Q5JPB2] the pKd was “below the threshold”.

These binders were tested against T2, DLG3_1, Q92796 (assay: holdup assay). Settings: plain residues with an end cap or a label only (N-terminal biotin on a linker: ado-ado).
T2 sequence (Q92796 125-227, limits assumed, looked up): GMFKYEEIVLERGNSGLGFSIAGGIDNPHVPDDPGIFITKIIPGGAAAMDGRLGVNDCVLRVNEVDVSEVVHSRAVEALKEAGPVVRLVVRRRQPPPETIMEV
Set-up: key: below the threshold = too weak to quantify, mostly under pKd 3.1 to 4
RHGSCVETSL [TMEM151B, Q8IW70] gave a pKd of 3.53.
With DDEDRLVIEI [ZNF831, Q5JPB2] the pKd was “below the threshold”.

The binders below were run against T3, DLG3_2, Q92796 (assay: holdup assay). Settings: plain residues with an end cap or a label only (N-terminal biotin on a linker: ado-ado).
T3 sequence (Q92796 221-321, limits assumed, looked up): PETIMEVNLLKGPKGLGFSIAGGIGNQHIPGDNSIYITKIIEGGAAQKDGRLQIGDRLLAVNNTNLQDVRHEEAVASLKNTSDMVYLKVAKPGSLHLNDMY
Set-up: key: below the threshold = too weak to quantify, mostly under pKd 3.1 to 4
With RHGSCVETSL [TMEM151B, Q8IW70] the pKd was 4.53.
Binder DDEDRLVIEI [ZNF831, Q5JPB2] has a pKd of 4.

What follows are binders tested against DLG4_1, P78352 (assay: holdup assay). Settings: plain residues with an end cap or a label only (N-terminal biotin on a linker: ado-ado).
DLG4_1, P78352, sequence (P78352 62-152): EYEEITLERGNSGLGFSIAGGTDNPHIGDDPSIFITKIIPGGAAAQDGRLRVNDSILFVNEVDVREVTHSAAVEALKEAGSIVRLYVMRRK
Set-up: key: below the threshold = too weak to quantify, mostly under pKd 3.1 to 4
Work on RHGSCVETSL [TMEM151B, Q8IW70] yielded a pKd of 3.98.
For DDEDRLVIEI [ZNF831, Q5JPB2], the pKd was “below the threshold”.

These binders were tested against GORASP2, Q9H8Y8 (assay: holdup assay). Settings: plain residues with an end cap or a label only (N-terminal biotin on a linker: ado-ado).
Set-up: key: below the threshold = too weak to quantify, mostly under pKd 3.1 to 4
For RHGSCVETSL [TMEM151B, Q8IW70], the pKd was “below the threshold”.
DDEDRLVIEI [ZNF831, Q5JPB2] was tested, and the pKd was 4.72.

The binders below were run against T4, GRIP1_2, Q9Y3R0 (assay: holdup assay). Settings: plain residues with an end cap or a label only (N-terminal biotin on a linker: ado-ado).
T4 sequence (Q9Y3R0 145-248, limits assumed, looked up): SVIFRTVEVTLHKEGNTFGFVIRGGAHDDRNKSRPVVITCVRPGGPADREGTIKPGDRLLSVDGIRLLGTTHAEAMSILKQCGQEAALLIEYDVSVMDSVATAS
Set-up: key: below the threshold = too weak to quantify, mostly under pKd 3.1 to 4
RHGSCVETSL [TMEM151B, Q8IW70] was tested, and the pKd was “below the threshold”.
For DDEDRLVIEI [ZNF831, Q5JPB2], the pKd was “below the threshold”.

The binders below were run against T5, GRIP1_4, Q9Y3R0 (assay: holdup assay). Settings: plain residues with an end cap or a label only (N-terminal biotin on a linker: ado-ado).
T5 sequence (Q9Y3R0 467-571, limits assumed, looked up): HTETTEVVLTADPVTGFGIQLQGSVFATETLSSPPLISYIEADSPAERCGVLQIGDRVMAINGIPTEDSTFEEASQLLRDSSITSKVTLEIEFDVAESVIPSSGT
Set-up: key: below the threshold = too weak to quantify, mostly under pKd 3.1 to 4
RHGSCVETSL [TMEM151B, Q8IW70] was tested, and the pKd was “below the threshold”.
With DDEDRLVIEI [ZNF831, Q5JPB2] the pKd was “below the threshold”.

Each binder was assayed against HTRA1, Q92743 (assay: holdup assay). Settings: plain residues with an end cap or a label only (N-terminal biotin on a linker: ado-ado).
HTRA1, Q92743, sequence (Q92743 360-477): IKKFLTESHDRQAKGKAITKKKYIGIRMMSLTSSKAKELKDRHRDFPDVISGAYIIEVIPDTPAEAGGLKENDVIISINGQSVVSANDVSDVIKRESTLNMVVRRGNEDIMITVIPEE
Set-up: key: below the threshold = too weak to quantify, mostly under pKd 3.1 to 4
For RHGSCVETSL [TMEM151B, Q8IW70], the pKd was 3.86.
Binder DDEDRLVIEI [ZNF831, Q5JPB2] has a pKd of 5.7.

The binders below were run against T6, HTRA3, P83110 (assay: holdup assay). Settings: plain residues with an end cap or a label only (N-terminal biotin on a linker: ado-ado).
T6 sequence (P83110 354-453, limits assumed, looked up): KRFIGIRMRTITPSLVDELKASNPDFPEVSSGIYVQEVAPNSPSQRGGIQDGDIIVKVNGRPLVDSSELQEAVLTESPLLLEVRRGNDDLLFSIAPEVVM
Set-up: key: below the threshold = too weak to quantify, mostly under pKd 3.1 to 4
For RHGSCVETSL [TMEM151B, Q8IW70], the pKd was “below the threshold”.
DDEDRLVIEI [ZNF831, Q5JPB2] showed a pKd of 4.

Each binder was assayed against IL16_1, Q14005 (assay: holdup assay). Settings: plain residues with an end cap or a label only (N-terminal biotin on a linker: ado-ado).
IL16_1, Q14005, sequence (Q14005 210-306): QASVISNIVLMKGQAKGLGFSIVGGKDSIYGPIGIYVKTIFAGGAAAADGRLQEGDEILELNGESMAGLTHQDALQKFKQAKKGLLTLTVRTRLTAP
Set-up: key: below the threshold = too weak to quantify, mostly under pKd 3.1 to 4
RHGSCVETSL [TMEM151B, Q8IW70] showed a pKd of 3.62.
For DDEDRLVIEI [ZNF831, Q5JPB2], the pKd was “below the threshold”.

Each binder was assayed against Inadl_10, Q8NI35 (assay: holdup assay). Settings: plain residues with an end cap or a label only (N-terminal biotin on a linker: ado-ado).
Inadl_10, Q8NI35, sequence (Q8NI35 1673-1763): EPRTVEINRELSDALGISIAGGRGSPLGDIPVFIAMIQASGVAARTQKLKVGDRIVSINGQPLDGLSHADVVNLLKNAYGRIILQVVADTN
Set-up: key: below the threshold = too weak to quantify, mostly under pKd 3.1 to 4
For RHGSCVETSL [TMEM151B, Q8IW70], the pKd was “below the threshold”.
With DDEDRLVIEI [ZNF831, Q5JPB2] the pKd was “below the threshold”.

The binders below were run against Inadl_5, Q8NI35 (assay: holdup assay). Settings: plain residues with an end cap or a label only (N-terminal biotin on a linker: ado-ado).
Inadl_5, Q8NI35, sequence (Q8NI35 673-780): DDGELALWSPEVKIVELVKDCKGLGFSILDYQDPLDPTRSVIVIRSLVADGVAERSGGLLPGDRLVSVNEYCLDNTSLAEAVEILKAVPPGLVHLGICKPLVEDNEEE
Set-up: key: below the threshold = too weak to quantify, mostly under pKd 3.1 to 4
For RHGSCVETSL [TMEM151B, Q8IW70], the pKd was “below the threshold”.
In the case of DDEDRLVIEI [ZNF831, Q5JPB2], the pKd is reported as “below the threshold”.

Each binder was assayed against Inadl_9, Q8NI35 (assay: holdup assay). Settings: plain residues with an end cap or a label only (N-terminal biotin on a linker: ado-ado).
Inadl_9, Q8NI35, sequence (Q8NI35 1530-1615): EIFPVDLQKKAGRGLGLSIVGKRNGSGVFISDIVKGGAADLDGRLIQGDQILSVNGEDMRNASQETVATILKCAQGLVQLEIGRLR
Set-up: key: below the threshold = too weak to quantify, mostly under pKd 3.1 to 4
With RHGSCVETSL [TMEM151B, Q8IW70] the pKd was “below the threshold”.
DDEDRLVIEI [ZNF831, Q5JPB2] gave a pKd of 3.48.

These binders were tested against LAP2, Q96RT1 (assay: holdup assay). Settings: plain residues with an end cap or a label only (N-terminal biotin on a linker: ado-ado).
LAP2, Q96RT1, sequence (Q96RT1 other isoform, or with tags, fused parts or gaps): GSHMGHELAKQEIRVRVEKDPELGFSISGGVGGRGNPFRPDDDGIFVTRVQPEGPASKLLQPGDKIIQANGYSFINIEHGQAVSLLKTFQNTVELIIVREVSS
Set-up: key: below the threshold = too weak to quantify, mostly under pKd 3.1 to 4
Binder RHGSCVETSL [TMEM151B, Q8IW70] has a pKd of 3.94.
In the case of DDEDRLVIEI [ZNF831, Q5JPB2], the pKd is reported as “below the threshold”.

What follows are binders tested against T7, LIN7B, Q9HAP6 (assay: holdup assay). Settings: plain residues with an end cap or a label only (N-terminal biotin on a linker: ado-ado).
T7 sequence (Q9HAP6 88-185, limits assumed, looked up): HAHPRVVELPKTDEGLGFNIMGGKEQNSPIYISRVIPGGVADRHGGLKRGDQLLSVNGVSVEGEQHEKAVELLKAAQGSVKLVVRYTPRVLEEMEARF
Set-up: key: below the threshold = too weak to quantify, mostly under pKd 3.1 to 4
RHGSCVETSL [TMEM151B, Q8IW70] gave a pKd of 4.45.
Work on DDEDRLVIEI [ZNF831, Q5JPB2] yielded a pKd of 3.56.

These binders were tested against T8, MPDZ_10, O75970 (assay: holdup assay). Settings: plain residues with an end cap or a label only (N-terminal biotin on a linker: ado-ado).
T8 sequence (O75970 1624-1722, limits assumed, looked up): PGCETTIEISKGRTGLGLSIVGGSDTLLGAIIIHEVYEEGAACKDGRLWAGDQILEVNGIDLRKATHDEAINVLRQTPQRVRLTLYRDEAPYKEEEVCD
Set-up: key: below the threshold = too weak to quantify, mostly under pKd 3.1 to 4
In the case of RHGSCVETSL [TMEM151B, Q8IW70], the pKd is reported as “below the threshold”.
In the case of DDEDRLVIEI [ZNF831, Q5JPB2], the pKd is reported as “below the threshold”.

The binders below were run against NHERF4_4, Q86UT5 (assay: holdup assay). Settings: plain residues with an end cap or a label only (N-terminal biotin on a linker: ado-ado).
NHERF4_4, Q86UT5, sequence (Q86UT5 464-550): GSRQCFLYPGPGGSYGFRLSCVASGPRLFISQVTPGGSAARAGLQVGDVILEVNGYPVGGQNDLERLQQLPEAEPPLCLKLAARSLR
Set-up: key: below the threshold = too weak to quantify, mostly under pKd 3.1 to 4
RHGSCVETSL [TMEM151B, Q8IW70] was tested, and the pKd was “below the threshold”.
In the case of DDEDRLVIEI [ZNF831, Q5JPB2], the pKd is reported as 3.66.

The binders below were run against NOS1, P29475 (assay: holdup assay). Settings: plain residues with an end cap or a label only (N-terminal biotin on a linker: ado-ado).
NOS1, P29475, sequence (P29475 9-101): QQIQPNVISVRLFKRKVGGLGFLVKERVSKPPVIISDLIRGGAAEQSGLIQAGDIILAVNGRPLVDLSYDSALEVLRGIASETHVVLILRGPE
Set-up: key: below the threshold = too weak to quantify, mostly under pKd 3.1 to 4
With RHGSCVETSL [TMEM151B, Q8IW70] the pKd was 3.84.
Binder DDEDRLVIEI [ZNF831, Q5JPB2] has a pKd of 3.64.

Each binder was assayed against T9, PARD3B_1, Q8TEW8 (assay: holdup assay). Settings: plain residues with an end cap or a label only (N-terminal biotin on a linker: ado-ado).
T9 sequence (Q8TEW8 196-299, limits assumed, looked up): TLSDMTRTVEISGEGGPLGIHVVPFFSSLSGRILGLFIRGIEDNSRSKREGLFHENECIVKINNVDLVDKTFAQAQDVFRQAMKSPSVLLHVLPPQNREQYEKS
Set-up: key: below the threshold = too weak to quantify, mostly under pKd 3.1 to 4
With RHGSCVETSL [TMEM151B, Q8IW70] the pKd was 3.95.
For DDEDRLVIEI [ZNF831, Q5JPB2], the pKd was 3.62.

These binders were tested against T10, PTPN13_1, Q12923 (assay: holdup assay). Settings: plain residues with an end cap or a label only (N-terminal biotin on a linker: ado-ado).
T10 sequence (Q12923 1088-1188, limits assumed, looked up): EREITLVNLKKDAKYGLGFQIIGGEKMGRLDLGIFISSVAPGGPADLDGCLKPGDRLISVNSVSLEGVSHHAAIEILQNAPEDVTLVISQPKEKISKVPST
Set-up: key: below the threshold = too weak to quantify, mostly under pKd 3.1 to 4
RHGSCVETSL [TMEM151B, Q8IW70] was tested, and the pKd was “below the threshold”.
For DDEDRLVIEI [ZNF831, Q5JPB2], the pKd was “below the threshold”.

The binders below were run against T11, RHPN1, Q8TCX5 (assay: holdup assay). Settings: plain residues with an end cap or a label only (N-terminal biotin on a linker: ado-ado).
T11 sequence (Q8TCX5 508-602, limits assumed, looked up): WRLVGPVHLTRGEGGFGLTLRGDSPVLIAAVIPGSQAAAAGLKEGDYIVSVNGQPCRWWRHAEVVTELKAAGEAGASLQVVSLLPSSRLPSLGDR
Set-up: key: below the threshold = too weak to quantify, mostly under pKd 3.1 to 4
In the case of RHGSCVETSL [TMEM151B, Q8IW70], the pKd is reported as 5.02.
DDEDRLVIEI [ZNF831, Q5JPB2] showed a pKd of 3.53.

These binders were tested against T12, SYNJ2BP, P57105 (assay: holdup assay). Settings: plain residues with an end cap or a label only (N-terminal biotin on a linker: ado-ado).
T12 sequence (P57105 8-110, limits assumed, looked up): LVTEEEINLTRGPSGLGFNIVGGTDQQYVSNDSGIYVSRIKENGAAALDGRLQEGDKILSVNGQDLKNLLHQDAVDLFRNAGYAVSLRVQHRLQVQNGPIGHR
Set-up: key: below the threshold = too weak to quantify, mostly under pKd 3.1 to 4
For RHGSCVETSL [TMEM151B, Q8IW70], the pKd was 5.1.
With DDEDRLVIEI [ZNF831, Q5JPB2] the pKd was “below the threshold”.

The binders below were run against TJP1_3, Q07157 (assay: holdup assay). Settings: plain residues with an end cap or a label only (N-terminal biotin on a linker: ado-ado).
TJP1_3, Q07157, sequence (Q07157 416-512): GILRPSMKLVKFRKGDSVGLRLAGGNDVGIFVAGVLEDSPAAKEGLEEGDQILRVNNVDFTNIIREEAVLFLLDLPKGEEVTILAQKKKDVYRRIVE
Set-up: key: below the threshold = too weak to quantify, mostly under pKd 3.1 to 4
In the case of RHGSCVETSL [TMEM151B, Q8IW70], the pKd is reported as “below the threshold”.
With DDEDRLVIEI [ZNF831, Q5JPB2] the pKd was “below the threshold”.

The binders below were run against TJP2_1, Q9UDY2 (assay: holdup assay). Settings: plain residues with an end cap or a label only (N-terminal biotin on a linker: ado-ado).
TJP2_1, Q9UDY2, sequence (Q9UDY2 24-128): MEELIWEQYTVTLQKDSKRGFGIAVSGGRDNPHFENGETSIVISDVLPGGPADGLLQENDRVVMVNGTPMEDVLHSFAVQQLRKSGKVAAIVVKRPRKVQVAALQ
Set-up: key: below the threshold = too weak to quantify, mostly under pKd 3.1 to 4
RHGSCVETSL [TMEM151B, Q8IW70] was tested, and the pKd was “below the threshold”.
For DDEDRLVIEI [ZNF831, Q5JPB2], the pKd was “below the threshold”.
